According to the domain aggregation screens of Martell et al. (2025):

Assay: soluble fraction after stress (log2 fold change); higher = more stays soluble; pooled small domains, quantitative proteomics
Conditions: stress: 75 degC
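Note: 20 min heating vs room temperature control held 20 min.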

Sequence	soluble fraction (log2)
HMDYNSYGLTERELELVDYVLKGYSRKEMAEASGLKVNTIGSYMKKIYRKLNIHNRTELKERFI	-0.119
HMDYNYLVFVTNTGPRSIAVEDLEMTVSDGKLVVSSGADGETFDLSTLTKMYFSDAAVVSINDV	-1.1
HMDYQYILVDVKDRIATVTINRPEYSNAFARESYYEIADAMNTLGARDDVGVIVITGAGKHFSAGGDIKRF	-0.777
HMDYYKILGLSTSATLDQIKKAFRQLAIEFHPDKNPNNPTAEDKFQRISEAYAVLSNPEKRAEYDRSY	-0.0123
HMEAAETAVVTGTIVNIRSGPTLDFEAFAQVKQGDRLPVLDKFYNWYYVKLPSGVNGWISGQLVRIEQ	-2.86
HMEAELNSLVKTYENMKPKAAAQVFEELDMDVLLDVVERMKEKKLAPILAQVTPTRAKEITYELTQRR	-0.102
HMEAFDYLGRRTRDLLERQGWTTVPLVRDAYLAVPGGERLLQVPGFGRKSLREVRRWLWLQIGDPRFE	-1.25
HMEAIYKKNKNLIHTVIRDNFPFLIDTADYEDAFQEGSIGLIRAIDRFDDGLEYKFSSYAYTAIRNQIA	-1.15
HMEALGLSPRQVDVLRLLVEGRSNKMIMRELELSESTVKTHLQAIFRRLGVSSRTQAVVAAARLGL	-1.2
HMEALSAREIEILQALETGASNRELAKMLFISEATVKTHLVHIYQKLGVGTRTAAITEARERRV	-2.1
HMEANAYFDAYPDVAAEWARLSGSDEGKATLSAIGVTTPQQFAQYHYTTFGSKENRNAPVGYTP	0.072
HMEANPLTDREKEVLELVADGKNTKEIAQELSIKSGTVRNYISMILEKLEVKNRIEAITRSKEKGWF	-0.161
HMEAPMPIFWRPQFRIGHDDIDADHRYLILLINTVELVLRFPDDPRNVELALTELRRYAEDHFEREER	-0.0783
HMEAQAHYDAIYKAHPNADSIAQSAEFKAWVDAQPSVVRNAYWQLFDPKEGGTAEQIVEVFDAFVKSS	0.327
HMEDDIRSSIRTLDQFISKNQITLSKDVKNYILQLLSNDRMVTINELEKIKIYYDSNENIDLDTVKILLN	-0.796
HMEDEEILNEIRHTEQYVYYFGNYIMEHHVSRGLSKEKVIASLARELQIEIADIREDFDGMIEQIKTNILN	-0.329
HMEDESSIERYLGSGAIKGIGPSLAARIVKKFGKDTFRIIEQEPERLAEIKGISERKAMEISTLMEEK	-0.056
HMEDGRLPPPGTVLRREYKGRAVFVRVLPKGFEFEGEVYRSLSAIAAKVTGSHWNGFRFFGLHE	-3.01
HMEDHMVVFGKGGRITRLPDKATVLEYLDAANFFASRSSVVKVNGKLASLDQTLRDGDSIEIVD	-0.407
HMEDINAVLAENLRRLRESRRLSLDAVARLTGVSKSMLGQIERGEVNPTVSTMWKIAGGLKVNFTALFRRE	-3.79
HMEDIQPSVIFQNNMIDGFKKFGVSFLQNRRNVNVNTLNGLASAGTYPKWQQLLVNKISYIDMLLSTGG	0.0954
HMEDKIIVTVPGEYHLERIDRFLAANLEEDLSRSLIQRYIRENLITVNGEAVRANYKVKTDDEILITFPQ	-0.842
HMEDLAERLDNLSTMYAKMDPVRAAQVLLESKNKSENIEVLKRLKPKSLGLILENMPPREAYDYVSELQ	0.0743
HMEDLGYVKVASQTAAIRKSAAVQAGQIGTVHEGETYRYLGEEEGWYLVEYNGQKAYISWDDGEL	-0.323
HMEDMMKALLDVVRAQHTATEGSEERPFDINDIIDMALNITGRPEEPEEQQELSDTIQKLAESLAPDIFP	-0.424
HMEDNKLKNEIKNELVSHLEKPYSVEDLADALKYHGSAAFKLIVQELAILERERAVVVTHDGNFKINSS	-1.11

Sequence	soluble fraction (log2)
HMEDPAVYYKILQIPPDASLSEIHRAFEKITSAWDPERYPHISSWKETSAKKLQEIRNAYEKLLILRETG	-0.269
HMEDPFLWVEKLGSSDWIEREESAEKLLEAGEASVEALRTALTHPDLEVRERVRELLSVISPL	0.409
HMEDPRVTEIKNLQQDLAKKFKPTQGPASASDAVERVTAITTVMTKVAALPEDLRSEAMQPGKKM	-0.327
HMEDQFWQNRAEMALASARRAGRIVTYAEMADAADIPAPQRIHKLTLWLEATMRQDHASGQPLRAALV	0.0883
HMEDQITNQQFTMTKQSILDLLVKKSYPPYELANELHLKKEEVLPIIRFLIAENEIHFKDGMLHLPH	-1.01
HMEDQLDSLKDIIYDYLENNELYYNDLQEFKKIIIENMEFIHPNLNHKLIDNNFFKLINFKLEYNF	-0.152
HMEDSSSILNRMRKLIALLNRASEAYYKENKEIISNFEYDRLYDELLGLESRSNTVLSGSPTYKV	-1.87
HMEDTFEYPVSVNGKLRFKIELPVSMEKDEIRNIVLNDERAKKWLATGTLTNLIVVPNRIINIVIK	-0.528
HMEDTSTLSIKHKIKELINQESPQAILSDDKLVELLAAQGIKIARRTIAKYRETMNIPTSAERKRQKRPP	0.0599
HMEDVTLSLVVGEDLDGERLDVFLTWKLDRTRSQVQALIRDGKVRLEQGQRARPSMVVRSGMGISVSLEPR	-2.15
HMEDYYKILGVSKDASIDDIKKSYRKLSLQNHPDRNKSPQASENFAKINSAYEVLSDQRKKRQYDMQQSM	-0.073
HMEEAQWEFKWENTDSAEIHGPHSSSEMLKWQENSFFAKGVYVRKVGGDTTDFTDGKRIDFDLY	-0.705
HMEEDPILVAQRFLNIFRQLHIFDQQRREEFNSMILALPPEIRGTFGVLPGGSVLQEYVDELEISKGMA	-1.11
HMEEDPVISQAQRQALFKLAHDHFGQEEGNKVILRLIGEHGLRSTTNMTASVYKTVTDALIQVIESMVEG	-0.45
HMEEEDELALFLREERKNYDLTLTDVHEKTGIPQKVLKEFQWGDAQLTDRQRYTLTQYVEEAREYFQENA	0.161
HMEEEVKVPKIKGLTEAEAKAKLKSEGLESGTARSAYSDTVEEGHIISQSIQEGTKVPKGTAVSYEVSKGK	0.149
HMEEGKVKRMAMDMVDAFYDKVSAMVDDNNDLGRSVVDAWDDEEENPPEYMLDDETRAILVNAGKIEPE	0.298
HMEEHSLRKQEMLRIIEALEQLTPKEKTVVVLYYFKGVLFKDIAMLLDVTEGRISQLHTAAMGRLKKLMD	-0.14
HMEEIDLTPAEEILNKLPDNSRGYLIPTLNKIQNAYRFLPDPAMELLMEFFNVSRAEIFGVISFYPQLMI	-0.127
HMEEIPYGVISAKAGAAAYDYIKKSIELGIEKKIDGVATAPIQKEAIHMAGISYIGHTEMYQGIT	0.178
HMEEKEIGQTLSVKIRENVLSKLDMTRDLEDEEVKHIIEHEIWLAAKKHYISLEERNSIKRGIFNSL	-0.895
HMEELELTIDGEMVGRIDKQLGHHFDQFSRSQIQHWIEDGHVLVNGKQVKPKYKLLVGDHVQIIPEEPQK	0.261
HMEELIIQEELANKRLDIAISLLFPELTRAHAQKLIKEGSVLVDGKPRKASYPLTAGKRLSVTLPEPE	-0.172
HMEELPVLHLKHVVVEGESLWKLAEQYLNDGTRWQEIYMLNRENISNPDLIREGQELNIQFLQGE	-0.382
HMEENIKKDIEVPNIEGLTIDEAKKRLKEVNLNISIEDMEEKEGTEIITQQLPKAGIKVKEGVAIIAY	0.227
HMEEPEFEPYVVRLTAIALNVRTGPGTQYPVAMVIRGGGAFTIVAEENGFGLLKSGAGWIMLQHTERV	-2.61

Sequence	soluble fraction (log2)
HMEEQELQLIQFPIASGSAWAGKAVRELILPPETLLVMLIRGTETMIPKGDTMVQEGDTAVLSASAYRDD	-0.472
HMEEQKYEYHLGDVVYLGVDKYEILGITNNIVTLYDPEFPLLNKQLDFDEFEKRVKDNYANEHLKVT	-0.324
HMEERDMKGSISDLVERYADQLTDEQLEEIVLGIKNGLLEEDVKSYFFLPAEDMRRIRTALEQVR	0.0219
HMEESEMIAFATVAHRIVGKPVEAVMRSYRNRDNIPADIAAIVSSKFTFSVTMAEASYRNPKKSYQVNSII	0.275
HMEETLLLRESVRSALAMLAPTLRITLEMYVYRQLSPTEIALRSGVSISMVRRRLGYGLYKLRTQLIDA	-0.121
HMEFEIGQEDSKKSVKQFLYNTLRLSHGQVTALKRQERGILLNGERVFVTALLQEGDRLSLLLE	-1.7
HMEFFIIDHNGQQAGPFSFDQLVQKGISPETLVWKQGMADWNPAWKVEELKAVLEAVEANQSNQKAQ	≥ 1.04
HMEFGEVLAQLRQKRHISQAELGRAIFVSGGTISNYEKGVHFPDVEKLLLLADYFNVTTDYLLGRT	-2.65
HMEFNQAVQDVNELSMQYAKSDVLWPEFEPKVLAFAKNELSQMPPNQWKFALQTFYNGLKQAA	-0.576
HMEFPLSPHQYSVLRLMAQGLSNKQIAERLFLSENTVKGYVQEVLRRLGARNRLEAVMIANRRGWL	-0.316
HMEFPYISGVDVGTISNKEFARFETTKASDIVIALDKSGIPFSARFGDSEIVLTYDGSYKEEVEEIIAKV	0.172
HMEFSYMDQGLERYRAFLETHGHGNVPESYHELKLVNFVAHIRKLYRMNLLSEERRRALDEAGFVF	-2.5
HMEFVEERRNRMLDYIGENKRADVPELARHFDVTEVTIRRDLLILEQDGKLIRTHGGAMINR	-0.536
HMEGDKEIPNVIGKSINDAKKILEQAGLKLGEVKKVNDSSVAKNVVLSTNPNAGTKVSAGDAVSITVAEG	0.106
HMEGGLIMDRIEKGLQSGVMPDLRGLNLKDALYLLESYVQVQVIGSGGVIKQSIKTGDKFIMGSVIKLEL	-0.138
HMEGLATRLRFLRQARGLSYHALARLSGVTHTALHQIEAGKNIPGLDTAEKIAMALDVDPRWFAYGRGDPS	-3.18
HMEGPALKVWKARYLRAAILEQLLSDRWDDRGGQPIRVVVNEPTNSLLIRIPRHLWPEAEKLLQELDQR	-2.34
HMEGTEILVNIRKGMTKEEIASLLVSKGLVEDKNTFLVQTALYTSDRYPIQPGSYTLNTAQTPEEMLAVMT	-0.0935
HMEGVNLTVQEAKQMAAIIAPLLKQGQSPYQIVTNHPELGISEKTLYNYIENDVFHEIAGITVMDL	-0.819
HMEHIVNELDRKVIDYLQSHYDAKLNDIAQGIGVSKATATKSIRKLVQTGIVHVVGSSGTGTSYNLTE	-0.465
HMEHVVFEVTESGELENNTAVKHVLNSFNNKSLNLAIDDFGTGYSNLRYIRDMMFGIIKIDRLFIKDINES	0.324
HMEIDFDKINSIFNDANKLYEEGDYFEANNLYKNIVSSNIISKDLYYNLGLSYAKIGSNGYAILWYERALN	-0.0259
HMEIEEIDYGTFLQMVEDGVVEKIELTDTQIFLTSTVDNDDKVYTTGVMPDQDLTNRLIEAGVVNFGKVV	0.134
HMEIFSIEPDSYLGSGEEIASYYREGVTVIVNMAKLSDAESLRMVDFMSGLKLALLGNIKRITKHVYLLTP	-0.0777
